From patent publication US20150010920

Columns and labels:
[1] = system: EGFP-cas3-1 (also called EGFP-EF172cas)
[2] = system: EGFP-T/C1 (EGFP-E-III-F-172)
[3] = system: EGFP-Thr1 (EGFP-E-III-F-N188R)
[4] = system: EGFP-Thr1e (EGFP-E-III-F-FNPRGF)
[5] = system: EGFP-Thr1f (EGFP-E-III-F-FNPRSF)

Row | Substance | cleavage; 50 mM HEPES buffer with 10% sucrose [1] | optical change / cleavage (absorbance at 397 nm, SDS-PAGE, MALDI-MS) [2] | Km (µM); 50 mM Tris, 150 mM NaCl, 2.5 mM CaCl2, pH 8.0 [3] [µM] | kcat (s^-1); 50 mM Tris, 150 mM NaCl, 2.5 mM CaCl2, pH 8.0 [3] [s⁻¹] | kcat/Km (M^-1 s^-1); 50 mM Tris, 150 mM NaCl, 2.5 mM CaCl2, pH 8.0 [3] [M⁻¹ s⁻¹] | Km (µM); 50 mM Tris, 150 mM NaCl, 2.5 mM CaCl2, pH 8.0 [4] [µM] | fold change in Km compared to the thrombin sensor with cleavage linker (Gly-Arg-Gly) [4] | fold change in kcat compared to the thrombin sensor with cleavage linker (Gly-Arg-Gly) [4] | fold change in kcat/Km compared to the thrombin sensor with cleavage linker (Gly-Arg-Gly) [4] | kcat (s^-1); 50 mM Tris, 150 mM NaCl, 2.5 mM CaCl2, pH 8.0 [4] [s⁻¹] | kcat/Km (M^-1 s^-1); 50 mM Tris, 150 mM NaCl, 2.5 mM CaCl2, pH 8.0 [4] [M⁻¹ s⁻¹] | Km (µM); 50 mM Tris, 150 mM NaCl, 2.5 mM CaCl2, pH 8.0 [5] [µM] | fold change in Km compared to the thrombin sensor with cleavage linker (Gly-Arg-Gly) [5] | fold change in kcat compared to the thrombin sensor with cleavage linker (Gly-Arg-Gly) [5] | fold change in kcat/Km compared to the thrombin sensor with cleavage linker (Gly-Arg-Gly) [5] | kcat (s^-1); 50 mM Tris, 150 mM NaCl, 2.5 mM CaCl2, pH 8.0 [5] [s⁻¹] | kcat/Km (M^-1 s^-1); 50 mM Tris, 150 mM NaCl, 2.5 mM CaCl2, pH 8.0 [5] [M⁻¹ s⁻¹]
1 | active caspase-3 | the cleavage effect was very weak and the cleavage reaction slow |  |  |  |  |  |  |  |  |  |  |  |  |  |  |  | 
2 | thrombin |  | this sensor was not cleaved by thrombin and protease type X | 20.9 | 0.057 | 2770 | 2.81 | Km has great decrease with 10 folds | kcat, has significant increase with 5 folds | substrate specificity (kcat/Km) of these four thrombin sensor variants is resulted in 50-fold increase | 0.29 | 105000 | 2.86 | Km has great decrease with 10 folds | kcat, has significant increase with 5 folds | substrate specificity (kcat/Km) of these four thrombin sensor variants is resulted in 50-fold increase | 0.23 | 80200
